{
  "source": "patent US12043671B2",
  "about": "“Antibodies targeting an amphiregulin-derived cell surface neo-epitope” (Gundersen Lutheran Medical Foundation, Inc., priority 2021, dated 2024)",
  "molecules": {"B1": {"name": "GMF-3A3: Rabbit monoclonal IgG specific to cleaved AREG; VH SEQ ID NO: 5, VL SEQ ID NO: 6 (antibody, V domains shown)", "VH": "QQQLVESGGRLVTPGTPLTLTYTVSGFSLSDYHMSWVRQAPGKGLQWIATISNRGNTYYASWAKGRFTISKTSTTVDLKITSPTTEDTATYFCARDNVHGDGVLVFYLWGPGTLVTVSS", "VL": "AELVMTQTPASVSEPVGGTVTIKCQASQSIGTNLAWYQQKPGQPPKRLIYKASTLASGVSSRFKGSGSGTEFTLTISDLECADAATYYCQGYYSGDSNAFGGGTEVVVK", "modifications": "3A3 antibody, Heavy chain; 3A3 antibody, Light chain"}, "B2": {"name": "1A3-pHrodo (conjugate)", "VH": "QSVKESEGRLVTPGTPLRLTCTVAGYSLSRYHMCWVRQAPGKGLEWIGMIGGSGRTDYASWAKGRFTISKTSTTVDLKITSPTTEDTATYFCSTVYTDSDGDFWGPGTLVTVSS", "VL": "AELDMTQTPSSKSVPVGGTVTINCQASESVYSNDRLAWFQQKPGQPPKLLIYYASTLASGVPSRFKGSGSGTQFTLTISDLECADAATYYCQSCYDMSSYGVAFGGGTELEIL"}, "B3": {"name": "GMF-3E4: Rabbit monoclonal IgG specific to cleaved AREG; VH SEQ ID NO: 7, VL SEQ ID NO: 8 (antibody, V domains shown)", "VH": "QSVKESEGRLVTPGTPLTLTCTVSGFSLSDYWMSWVRQAPGKGLEWIGIAGYSDNTYYASRAKGRFTISKTSTTVVLKITRPTTEDTATYFCVRDLYGVYSSGTTLWGPGTLVTVSS", "VL": "AELVMTQTPSPVSAAVGGTVTISCQSSQSVYNNNRLAWFQQKPGQPPKLLIYYASTLASGVSSRFKGSGSGTQFTLIISDVVCDDAATYYCQGYYSGGITGFGGGTEVVVK", "modifications": "3E4 antibody, Heavy chain; 3E4 antibody, Light chain"}},
  "key": {"[1]": {"test_system": "MCF7-F (fulvestrant-resistant MCF7) breast cancer cells", "test": "MTT cytotoxicity assay", "conditions": "1.56-200 nM, 72 h", "description": "(§1) The cells were seeded at a density of 5000 cells/well in 96-well plates. Approximately 24 h after cell seeding, the cells were treated with varying doses (1.56, 3.125, 6.25, 12.5, 25, 50, 100 and 200 nM) of MMAE, 1A3 and 1A3-VC-PAB-MMAE. Untreated cells were used as control. After incubating for 72 h, the medium was aspirated and 50 μL of serum-free media and 50 μL of MTT solution (5 mg/mL solution in PBS) was added into each well; the cells were then incubated for 3 h at 37° C. The formazan crystals formed were dissolved with 4 mM HCl, 0.1% NP40 in isopropanol. The absorbance was measured at 590 nm using VersaMax Microplate Reader (Molecular Devices LLC, San Jose, California, USA). The assays were performed in triplicate."}, "[2]": {"test_system": "MCF-7 cells", "test": "Tubulin staining (microtubule integrity)", "assay_type": "cell-based, human", "conditions": "48 h treatment", "experimental": "FIGS. 4A-4E. In vitro 1A3-MMAE cytotoxicity in MCF-7 (FIG. 4A) and MCF-7F (FIG. 4B) cells measured by MTT assay after treatment with 1A3-MMAE, 1A3 or MMAE. FIG. 4C: Clonogenic growth of MCF-7 or MCF-7F cells after exposure to 1A3-MMAE and replating. FIG. 4D: The quantification of clonogenic growth assays in FIG. 4C. (FIG. 4E). Tubulin staining of MCF-7 cells after 48 h treatment with MMAE, 1A3, 1A3-MMAE (40× magnification)."}, "[3]": {"test_system": "MCF7 breast cancer cells", "test": "MTT cytotoxicity assay", "conditions": "MCF7, 1.56-200 nM, 72 h", "description": "as §1"}, "[4]": {"biological_target": "T1, peptide representing the neo-epitope of the ADAM17-cleavage product of human AREG (Homo sapiens, UniProt P15514)", "T1 construct": "host or cells: synthetic peptide", "test": "ELISA of rabbit IgG candidates against peptides representing cleaved and full length AREG", "assay_type": "binding", "conditions": "IgG format; cleaved vs uncleaved AREG peptide", "source_text": "FIGS. 1A-1C. Isolation of antibodies that selectively recognize a peptide representing cleaved AREG. FIG. 1A: Schematic representation of the AREG cleavage and EGFR activation process, one consequence of which is the internalization of the small transmembrane fragment that remains cell-associated after TACE/ADAM17-mediated cleavage. FIG. 1B: Schematic representation of phage panning strategy using a peptide representing the cleaved AREG neo-epitope adhered to the well and a peptide representing the non-cleaved AREG region in the liquid phase.\nRabbit monoclonal IgG antibodies specific to cleaved-AREG were identified in contracted screening (Oak Biosciences Inc., Sunnyvale, CA, USA) using a recombinant Rabbit naïve phage display library (scFv format, VK-linker-VH) screening platform after four rounds of panning and ELISA validation. For panning, phage was selected against a peptide modeling the ADAM17-cleaved cell-associated epitope of AREG,^12 represented by the N-terminal region of THSMIDSSLSKI (SEQ ID NO: 2), and counter-selected against a peptide spanning this region (SMKTHSMIDSSLSKIAC; SEQ ID NO: 9), representing uncleaved AREG. […] GMF-1A3, referred to hereafter as simply “1A3”, was the antibody chosen for further characterization in this Example."}, "[5]": {"test_system": "MCF7 cells", "test": "Internalization and intracellular localization of 1A3-pHrodo, live-cell imaging", "assay_type": "cell-based, human", "experimental": "In order to study internalization, 1A3 was conjugated with pHrodo iFL Red dye using pHrodo iFL Red Microscale Protein Labeling Kit (P36014, Thermo Fisher Scientific). MCF7 cells were seeded in 12 mm Nunc Glass Bottom Dish, at a density of 1 ×10^5 cells/dish. After allowing the cells to attach overnight, the cells were incubated for 60 min with […] Hoechst dye for nuclei staining and LysoTracker® Green DND-26 (Thermo Fisher Scientific) for lysosomal labeling. The cells were then incubated with 1A3-pHrodo (2 μg/mL) for 20 min at 37° C. After washing the wells with PBS, the cells were supplemented with 1× live-cell imaging solution (Molecular probes, Thermo Fisher Scientific). Fluorescence images were acquired at 30 min intervals for 2.5 h with the Olympus 1×71 inverted fluorescence microscope (Olympus, Shinjuku, Tokyo, Japan). TAPI-2 (20 μM)—pre-treatment was performed overnight, with DMSO serving as a control."}},
  "note": "Non-standard residues stand in square brackets, D forms with d. Residues, ends and D or L forms follow the SMILES beside them. *: point of attachment. Dolaproine = CO[C@@H]([C@@H]1CCCN1)[C@@H](C)C(=O)O; Dil = CC[C@H](C)[C@H](NC)[C@@H](CC(=O)O)OC; X1 = C[C@@H](N*)[C@@H](O)c1ccccc1; NMeV = CN[C@H](C(=O)O)C(C)C",
  "data": [
    {"molecule": "CC[C@H](C)[C@@H]([C@@H](CC(=O)N1CCC[C@H]1[C@H](OC)[C@@H](C)C(=O)N[C@H](C)[C@@H](O)c1ccccc1)OC)N(C)C(=O)[C@@H](NC(=O)[C@@H](NC)C(C)C)C(C)C", "note": "[MMAE, monomethyl auristatin E, reference compound] (H-[NMeV]V[Dil][Dolaproine]-X1)", "values": [
      {"measurement": "cytotoxicity by MTT assay", "setting": "[1]", "result": "potently killed the cells"},
      {"measurement": "tubulin disruption (microtubule integrity)", "setting": "[2]", "result": "exhibited tubulin disruption"},
      {"measurement": "cytotoxicity by MTT assay", "setting": "[3]", "result": "potently killed the cells"}
    ]},
    {"molecule": "B1", "values": [
      {"measurement": "selectivity for cleaved AREG by ELISA", "setting": "[4]", "result": "selectivity for cleaved AREG was confirmed"}
    ]},
    {"molecule": "B2", "values": [
      {"measurement": "time of treatment after which red fluorescence (presence in acidic endosomes) was evident", "setting": "[5]; 1A3-pHrodo 2 μg/mL", "result": 30, "unit": "min"},
      {"measurement": "fluorescence development after pretreatment with ADAM17 inhibitor TAPI-2", "setting": "[5]; TAPI-2 20 μM overnight pre-treatment", "result": "prevented the development of fluorescence"}
    ]},
    {"molecule": "B3", "values": [
      {"measurement": "selectivity for cleaved AREG by ELISA", "setting": "[4]", "result": "selectivity for cleaved AREG was confirmed"}
    ]}
  ]
}
